# Test results published in paper PMC12199414, “A Self‐Assembling LYTAC Mediates CTGF Degradation and Remodels Inflammatory Tumor Microenvironment for Triple‐Negative Breast Cancer Therapy” (Advanced Science, 2025).
# How the values were obtained:
# [1] = Dynamic light scattering: size, PDI, zeta potential; format: physicochemical; conditions: DLS, 500 µg/mL in PBS
# Method: A solution of 1‐Dodecanethiol (0.5 mmol) and 2,2′‐Dithiodipyridine (0.6 mmol) in 10 mL MeOH was vigorously stirred for 3 h at room temperature. The reaction mixture was diluted with petroleum ether/ethyl acetate (50:1, v/v). The purified products 2‐(dodecyldisulfaneyl)pyridine were characterized by MS. CL8‐M6P3 (1.4 mg, 0.56 µmol, 1 eq.) and 2‐(dodecyldisulfaneyl)pyridine (261.7 µg, 0.84 µmol, 1.5 eq.) dissolved in 1 mL DMF/ddH2O (1/1, v:v) was vigorously stirred for 16 h at room temperature. The products were diluted with ddH2O. The aqueous layer was extracted with ethyl acetate three times, and filtered and concentrated under reduced pressure. For particle size measurement, NanoCLY was prepared at a final concentration of 500 µg/mL in PBS, sonicated for 30 min, and used for particle size analyzer (Malvern Panalytical, UK), transmission electron microscope (TEM) analysis (JEOL, Japan) and Nanosight NS300 (Malvern Panalytical, UK). 2‐(dodecyldisulfaneyl)pyridine, ESI‐MS calcd for C17H29NS2 [M + H]^+ 312.55, found 312.20. NanoCLY, ESI‐MS calcd for C107H176N27O47P3S2 [M + H]^+ 2750.77, found 1375.50.
# [2] = Critical micelle concentration with pyrene; format: physicochemical; conditions: pyrene fluorescence I390/I380, aqueous solution, sonicated 2 h
# Method: The CMC value of NanoCLY in an aqueous solution was estimated by pyrene. Pyrene with the final concentration of 6.08 mg L^−1 was added 100 µL to Eppendorf tubes and dried overnight, and was added with 500 µL of various concentrations of NanoCLY (0.001, 0.006, 0.0125, 0.025, 0.05, 0.2, 0.6 mg mL^−1), and sonicated for 2 h. After sonicating, the supernatant samples were collected, and recorded the intensity ratios of I390/I380 by microplate reader Cytation 5 (Biotek, USA). The crossing point of the two linear fittings of the logarithm of NanoCLY concentrations was set as the CMC value.
# [3] = Stability of nanoparticles in PBS; format: physicochemical; conditions: PBS pH 7.4, 37 °C, n = 3
# [4] = GSH response of NanoCLY (HPLC); format: physicochemical
# Method: For in vitro experiments, NanoCLY (0.1 mg mL^−1) was incubated with varying concentrations of GSH (0, 2, 25 × 10^−5 M) in PBS at 37 °C for 6 h. After incubation, the aliquots were analyzed by NanoSight (Malvern Panalytical, UK), HPLC (Agilent, USA), and TEM (JEOL, Japan). For in vivo experiments, when tumor volume reached about 200 mm^3, mice were intratumorally injected with 50 µL NanoCLY (2.5 mg kg^−1), or NanoCLY (2.5 mg kg^−1) with a 20‐min preinjection of H2O2 (2.5 × 10^−2 M). Tumors were collected after 4 h for HPLC analysis.
# (§1) For the DLS assay, NanoCLY solution was mixed with 50% mouse plasma and incubated for different time periods. After incubation, the aliquots were analyzed using DLS. For the NanoCLY stability assay under simulated plasma GSH conditions, NanoCLY solution was mixed with 1.5 × 10^−6 M GSH or 20% mouse plasma, and was incubated for different time periods. After incubation, the aliquots were diluted and analyzed by HPLC.
# [5] = Plasma stability assay; format: in vitro ADME; conditions: 50% mouse plasma (DLS) and 20% mouse plasma or 1.5 × 10^−6 M GSH (HPLC), different time periods, n = 3
# Method: as §1
# [6] = system: red blood cells; assay: Hemolysis assay; format: cell-based, mice; conditions: mouse erythrocytes, 0-30 × 10^−6 M, 1 h, 37 °C, absorbance 570 nm
# Method: The hemolytic activities of CL8, CL8‐M6P3, and NanoCLY were determined by monitoring hemoglobin release from red blood cells. Fresh erythrocytes were obtained from the whole blood of mice by centrifugation (1000 × g for 30 min at 4 °C), and washed three times with cold 0.9% NaCl. The erythrocytes were dispensed into 96‐well plates, incubated with CL8, CL8‐M6P3 and NanoCLY at specified concentrations (0, 0.3, 1, 3, 10, and 30 × 10^−6 M) for 1 h at 37 °C, centrifuged at 1000 × g for 10 min, the supernatant samples were collected, and the absorbance at 570 nm was measured by microplate reader Cytation 5 (Biotek, USA). The negative control group was defined as the absorbance obtained in 1× PBS (A PBS), and 100% hemolysis in 0.1%Triton X‐100 (v/v) (A Triton). The hemolysis percentage was calculated as: (A peptide − A PBS)/(ATriton − A PBS) × 100%.
# [7] = system: MDA‐MB‐231 tumor; assay: Orthotopic xenograft MDA‐MB‐231 tumor model; format: in vivo, BALB/c nude mice
# Method: For the orthotopic xenograft MDA‐MB‐231 tumor model, 3 × 10^6 cells were injected into the fourth pair of breast pads on the left side of the female nude mice (4–6 weeks old). To evaluate the antitumor effect of NanoCLY in vivo, the mice were treated with 10 mg kg^−1 NanoCLY daily once the tumor volume reached ≈50 mm^3, with CL8 peptide (10 mg kg^−1, daily) and FG‐3019 (30 mg kg^−1, every 3 days) as the positive control group and PBS as negative control group. The dose selection and administration frequency of NanoCLY were based on both references to previously reported protein degrader studies with similar mechanisms and effective concentrations,^[ [28], [54], [58] ^] and our preliminary in vivo dose‐escalation experiments. […] Based on this, 10 mg kg^−1 was selected for subsequent experiments. As for FG‐3019, the 30 mg kg^−1 dose was chosen based on previous studies.^[ [43], [59] ^] To evaluate the advantages of degradation strategies in vivo, the mice were treated with 10 mg kg^−1 NanoCLY daily with Nano@CL8 (10 mg kg^−1, daily) and PBS as control group. To evaluate the antitumor effect of combination therapy in vivo, the mice were treated with NanoCLY (10 mg kg^−1, daily), PTX (5 mg kg^−1, every two days), and PTX plus NanoCLY. […]
substance,measurement,setting,value
"C12-CPSAAHYL-PEG3-[Pra(M6P)βAla]3-NH2 [NanoCLY, CL8-M6P3 joined to a lauryl chain via disulfide; self-assembling GSH-responsive LYTAC nanoparticle]",polymer dispersity index (PDI),[1],0.301 ± 0.059
same,hydrodynamic diameter (size),[1]; sonicated 30 min,118.0 ± 9.38 nm
same,critical micelle concentration (CMC),[2],55.1 µg/mL
same,stability in PBS (size and PDI),[3],at least 72 h
same,stability under plasma-mimicking GSH,"[4]; GSH 1.5 × 10⁻⁶ M, analytical HPLC 214 nm",remained stable
same,disulfide linker cleavage at TME-relevant GSH,"[4]; GSH 2 × 10⁻⁵ and 2.5 × 10⁻⁴ M in PBS, 37 °C, 6 h, NanoCLY 0.1 mg mL^−1, analytical HPLC 214 nm",selective cleavage of the disulfide linker
same,size and structural integrity under plasma conditions,[5],retained its size and structural integrity
same,hemolysis safety,[6],good hemolysis safety
same,tumor growth inhibition (TGI),"[7]; 10 mg kg^−1 daily i.v., n = 6",59.62% and ≈ 60%
same,tumor inhibition rate,"[7]; preliminary in vivo dose-escalation experiments, 10 mg kg^−1",over 50%
